Data as given in article PMC3018548 (Archives of biochemistry and biophysics, 2010).

Molecular target: the molecule itself
Assay: protein concentration dependence of fluorimetric metal uptake kinetics

B1: Escherichia coli apo-manganese superoxide dismutase (wt apo-MnSOD) (enzyme, UniProt P00448 1-206, looked up)
chain: MSYTLPSLPYAYDALEPHFDKQTMEIHHTKHHQTYVNNANAALESLPEFANLPVEELITKLDQLPADKKTVLRNNAGGHANHSLFWKGLKKGTTLQGDLKAAIERDFGSVDNFKAEFEKAAASRFGSGWAWLVLKGDKLAVVSTANQDSPLMGEAISGASGFPIMGLDVWEHAYYLKFQNRRPDYIKEFWNVVNWDEAAARFAAKK
Kd: 6.6 ± 0.9 µM
